This note sets out measurements from patent publication US20260109763A1 (DENALI THERAPEUTICS, published 2026).

The target in one test is T1, human PILRA G78 on cells (human, UniProt Q9UKJ1 20-303).
T1 construct: wild-type iMicroglia are R78/G78 heterozygous (said in the assay field); also called hPILRA; hPILRA G78
Nature of the test: flow cytometry on HEK293 cells expressing hPILRA G78.

The target of test [1] is T2, human PILRB extracellular domain (recombinant) (human, UniProt Q9UKJ0 20-191).
T2 construct: also called hPILRB
T2 sequence (Q9UKJ0 20-191 limits assumed): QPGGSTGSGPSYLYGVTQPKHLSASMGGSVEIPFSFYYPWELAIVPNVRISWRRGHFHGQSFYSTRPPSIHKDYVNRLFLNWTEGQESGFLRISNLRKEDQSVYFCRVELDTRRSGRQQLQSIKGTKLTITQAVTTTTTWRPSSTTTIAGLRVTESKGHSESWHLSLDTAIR
Kind of test: SPR, Biacore 8K, recombinant ECD. A general note: Surface plasmon resonance follows binding to a sensor surface in real time, without labels.
Description: Antibodies were captured on Biacore™ Series S CM5 sensor chips immobilized with mouse anti-human Fab (human Fab capture kit from GE Healthcare) followed by injections of serial 3-fold dilutions of recombinant ECD reagents at a flow rate of 30 μL/min. Each sample was analyzed using a 3-minute association followed by a 10-minute dissociation. After each injection, the sensor chip was regenerated using a 5 0 mM glycine pH2.0 regeneration buffer. A 1:1 Languir model of simultaneous fitting of kₒₙ and koff was used for kinetics analysis.

In test [2] the target is T3, human PILRA G78 extracellular domain (recombinant hPILRA ECD) (human, UniProt Q9UKJ1 20-197).
T3 construct: also called hPILRA G78
T3 sequence (Q9UKJ1 20-197 R78G limits assumed): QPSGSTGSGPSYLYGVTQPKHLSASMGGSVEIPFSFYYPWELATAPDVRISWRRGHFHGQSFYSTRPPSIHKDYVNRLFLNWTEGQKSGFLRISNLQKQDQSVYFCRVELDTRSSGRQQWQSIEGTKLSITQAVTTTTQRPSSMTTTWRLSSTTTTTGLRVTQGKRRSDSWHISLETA
Kind of test: SPR, Biacore 8K; antibody captured via anti-human Fab, recombinant ECD injected; 1:1 fit.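 Also: CM5 sensor chip, ECD analyte in threefold dilution series at 30 µL/min, 3 min association and 10 min dissociation, kon and koff fitted simultaneously.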

Test [3] concerns the target T4, cynomolgus monkey PILRA extracellular domain (recombinant) (cynomolgus monkey).
T4 construct: also called cynoPILRA; Cyno PILRA
The test is described as above.

Test [4] concerns the target T3, human PILRA G78 extracellular domain …. Kind of test: SPR, Biacore 8K; hPILRA ECD; antibody with wild-type Fc.

T1 sequence (Q9UKJ1 20-303 R78G limits assumed): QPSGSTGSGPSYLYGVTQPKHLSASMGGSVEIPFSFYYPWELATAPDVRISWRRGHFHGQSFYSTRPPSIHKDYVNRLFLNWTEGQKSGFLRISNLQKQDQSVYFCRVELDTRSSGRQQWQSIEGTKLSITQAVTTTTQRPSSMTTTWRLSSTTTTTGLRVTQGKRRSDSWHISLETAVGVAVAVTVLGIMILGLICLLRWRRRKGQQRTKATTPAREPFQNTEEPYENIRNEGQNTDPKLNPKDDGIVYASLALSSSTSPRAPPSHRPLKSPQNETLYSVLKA
T4 sequence (chain, as listed by the source limits assumed): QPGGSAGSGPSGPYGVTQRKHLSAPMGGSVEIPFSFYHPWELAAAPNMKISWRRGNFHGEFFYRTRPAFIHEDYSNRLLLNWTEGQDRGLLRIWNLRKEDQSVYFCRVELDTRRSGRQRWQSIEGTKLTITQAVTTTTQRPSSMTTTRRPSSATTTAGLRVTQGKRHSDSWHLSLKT
Description for human PILRA G78 on cells: Parental HEK293 cells were labeled with NucBlue Live ReadyProbes Reagent for 30 mins. […] Antibody binding to the cells was detected by FACS and median fluorescence intensity (MFI) was derived from data analysis performed with the FLOJO software (FIGS. 1A-1C).

B1: Anti-PILRA antibody clone 8 (antibody, V domains shown)
VH: QVQLVQSGAEVKKPGASVKVSCKASGYTFTGHYMHWVRQAPGQGLEWMGWINPNSGDTDYAQKFQGRVTMTRDTSISTAYMDLNRLRSDDTAVFYCAREGLDGDPFDYWGQGTLVTVSS
VL: EIMLTQTPLSSPVTLGQPASISCRSSQSLVHSDGNTYLSWLQQRPGQPPRLLIYNISNRFSGVPDRFSGRGAGTDFTLKISRVEAEDVGVYYCIQTTQFSTFGQGTKLEIK
As a reminder, the EC50 is the concentration giving half of the maximal effect. The Kd is the free concentration of one partner at which half of the binding sites on the other are occupied at equilibrium, for simple one-to-one binding. As for B1, in the test with human PILRA G78 on cells, it took 536 nM to reach a half-maximal effect (EC50). The binding result in test [1] is “no binding”. Besides, the equilibrium dissociation constant (Kd) in test [2] was 11 nM; in test [3] it was 59 nM.

B2: Anti-PILRA antibody clone 3 (antibody, V domains shown)
VH: EVQLVESGGGLVQPGRSLRLSCAASGFTFDDYAIHWVRQAPGKGLEWVSGMSWNSGSIGYGDSVKGRFTISRDNAKNSLYLQMNSLRAEDTAFYYCAKDKSIGAAGRFDCWGQGTLVTVSS
VL: not shown
B2 displayed a concentration giving a half-maximal response (EC50) with human PILRA G78 on cells of 14.1 nM. The binding result in test [1] is given as “no binding”. Further, the equilibrium dissociation constant (Kd) was 1.7 nM in test [2] and 3 nM in test [3].

B3: Anti-PILRA antibody clone 32 (antibody, V domains shown)
VH: EVQLVQSGAEVKKPGASVKVSCKASGYTFTEYYMYWVRQAPGQGLELIGRIDPEDGGTDYIEKFKNRVTLTADTSTSTAYLELSSLRSEDTAVYYCATTIRGTVFAFWGQGTLVTVSS
VL: DIQMTQSPSSLSASVGDRVTITCRPSEDIYNGLAWYQQKPGKSPKLLIYNANSLHTGVPSRFSGSGSGTDYTLTISSLQPEDFATYFCQQYYDYPLTFGQGTKVEIK
notes: Humanized
B3: in test [4], the Kd was 2.8 nM.

B4: Anti-PILRA antibody clone 14 (antibody, V domains shown)
VH: EVQLVQSGAEVKKPGASVKVSCKASGYTFTEYYMYWVRQAPGQGLELIGRIDPEDGGTDYIEKFKNRVTITADTSTSTAYLELSSLRSEDTAVYFCATTIRGTVFAFWGQGTLVTVSS
VL: DIQMTQSPSSLSASVGDRVTITCRASEDIFNGLAWYQQKPGKSPKLLIYNAKTLHTGVPSRFSGSGSGSDYTLTISSLQPEDFATYFCQQYYDYPLTFGQGTKVEIK
notes: Humanized
On to B4, for which the equilibrium dissociation constant (Kd) in test [4] stood at 1.63 nM.

B5: Anti-PILRA antibody clone 17 (antibody, V domains shown)
VH: EVQLVQSGAEVKKPGASVKVSCKASGYTFTEYYMYWVRQAPGQGLELIGRIDPEDGGTDYVEKFKNRVTLTADTSTSTAYLELSSLRSEDTAVYYCASTIRGTVFVYWGQGTLVTVSS
VL: DIQMTQSPSSLSASVGDRVTITCRASEDIFNGLAWYQQKPGKSPKLLIYNAKTLHTGVPSRFSGSGSGSDYTLTISSLQPEDFATYFCQQYYDYPLTFGQGTKVEIK
notes: Humanized
Turning to B5, the equilibrium dissociation constant (Kd) in test [4] was determined as 1.29 nM.

B6: Anti-PILRA antibody clone 31 (antibody, V domains shown)
VH: EVQLVQSGAEVKKPGASVKVSCKASGYTFTEYYMYWVRQAPGQGLELIGRIDPEDGGTDYVEKFKNRATLTADTSTSTAYLELSSLRSEDTAVYFCASTIRGTVFVYWGQGTLVTVSS
VL: DIQMTQSPSSLSASVGDRVTITCRASEDIFNGLAWYQQKPGKSPKLLIYNAKTLHTGVPSRFSGSGSGTDYTLTISSLQPEDFATYYCQQYYDYPLTFGQGTKVEIK
notes: Humanized
On to B6, for which the Kd in test [4] was determined as 0.915 nM.

B7: Anti-PILRA antibody clone 21 (antibody, V domains shown)
VH: EVQLVQSGAEVKKPGASVKVSCKASGYTFTEYYMYWVRQAPGQGLELIGRIDPEDGGTDYIEKFKNRSTLTADTSTSTAYLELSSLRSEDTAVYFCATTIRGTVFAFWGQGTLVTVSS
VL: DIQMTQSPSSLSASVGDRVTITCRPSEDIYNGLAWYQQKPGKAPKLLIYNANSLHTGVPSRFSGSGSGTDYTLTISSLQPEDFATYYCQQYYDYPLTFGQGTKVEIK
notes: Humanized
In the case of B7, the dissociation constant (Kd) in test [4] worked out at 0.667 nM.

B8: Anti-PILRA antibody clone 22 (antibody, V domains shown)
VH: EVQLVQSGAEVKKPGASVKVSCKASGYTFTEYYMYWVRQAPGQGLELIGRIDPEDGGTDYVEKFKNRVTLTADTSTSTAYLELSSLRSEDTAVYYCASTIRGTVFVYWGQGTLVTVSS
VL: DIQMTQSPSSLSASVGDRVTITCRPSEDIYNGLAWYQQKPGKAPKLLIYNANSLHTGVPSRFSGSGSGTDYTLTISSLQPEDFATYYCQQYYDYPLTFGQGTKVEIK
notes: Humanized
On to B8, for which the Kd in test [4] came out at 0.515 nM.

B9: Anti-PILRA antibody clone 25 (antibody, V domains shown)
VH: EVQLVQSGAEVKKPGASVKVSCKASGYTFTEYYMYWVRQAPGQGLELIGRIDPEDGGTDYIEKFKNRSTLTADTSTSTAYLELSSLRSEDTAVYFCATTIRGTVFAFWGQGTLVTVSS
VL: DIQMTQSPSSLSASVGDRVTITCRPSEDIYNGLAWYQQKPGKAPKLLIYNANSLHTGVPSRFSGSGSGTDYTLTISSLQPEDFATYFCQQYYDYPLTFGQGTKVEIK
notes: Humanized
Consider B9, for which the equilibrium dissociation constant (Kd) in test [4] amounted to 0.794 nM.

B10: Anti-PILRA antibody clone 19 (antibody, V domains shown)
VH: EVQLVQSGAEVKKPGASVKVSCKASGYTFTEYYMYWVRQAPGQGLELIGRIDPEDGGTDYVEKFKNRATLTADTSTSTAYLELSSLRSEDTAVYFCASTIRGTVFVYWGQGTLVTVSS
VL: DIQMTQSPSSLSASVGDRVTITCRASEDIFNGLAWYQQKPGKSPKLLIYNAKTLHTGVPSRFSGSGSGSDYTLTISSLQPEDFATYFCQQYYDYPLTFGQGTKVEIK
notes: Humanized
Take B10: the Kd in test [4] amounted to 2 nM.

B11: Anti-PILRA antibody clone 33 (antibody, V domains shown)
VH: EVQLVQSGAEVKKPGASVKVSCKASGYTFTEYYMYWVRQAPGQGLELIGRIDPEDGGTDYIEKFKNRSTLTADTSTSTAYLELSSLRSEDTAVYFCATTIRGTVFAFWGQGTLVTVSS
VL: DIQMTQSPSSLSASVGDRVTITCRPSEDIYNGLAWYQQKPGKSPKLLIYNANSLHTGVPSRFSGSGSGTDYTLTISSLQPEDFATYFCQQYYDYPLTFGQGTKVEIK
notes: Humanized
In the case of B11, the Kd in test [4] was 2.04 nM.

B12: Anti-PILRA antibody clone 26 (antibody, V domains shown)
VH: EVQLVQSGAEVKKPGASVKVSCKASGYTFTEYYMYWVRQAPGQGLELIGRIDPEDGGTDYVEKFKNRVTLTADTSTSTAYLELSSLRSEDTAVYYCASTIRGTVFVYWGQGTLVTVSS
VL: DIQMTQSPSSLSASVGDRVTITCRPSEDIYNGLAWYQQKPGKAPKLLIYNANSLHTGVPSRFSGSGSGTDYTLTISSLQPEDFATYFCQQYYDYPLTFGQGTKVEIK
notes: Humanized
Consider B12, for which, in test [4], the equilibrium dissociation constant (Kd) came out at 0.511 nM.

B13: Anti-PILRA antibody clone 18 (antibody, V domains shown)
VH: EVQLVQSGAEVKKPGASVKVSCKASGYTFTEYYMYWVRQAPGQGLELIGRIDPEDGGTDYVEKFKNRVTITADTSTSTAYLELSSLRSEDTAVYFCASTIRGTVFVYWGQGTLVTVSS
VL: DIQMTQSPSSLSASVGDRVTITCRASEDIFNGLAWYQQKPGKSPKLLIYNAKTLHTGVPSRFSGSGSGSDYTLTISSLQPEDFATYFCQQYYDYPLTFGQGTKVEIK
notes: Humanized
Regarding B13, the equilibrium dissociation constant (Kd) in test [4] came to 7.53 nM.

B14: Anti-PILRA antibody clone 16 (antibody, V domains shown)
VH: EVQLVQSGAEVKKPGASVKVSCKASGYTFTEYYMYWVRQAPGQGLELIGRIDPEDGGTDYVEKFKNRATITADTSTSTAYLELSSLRSEDTAVYYCASTIRGTVFVYWGQGTLVTVSS
VL: DIQMTQSPSSLSASVGDRVTITCRASEDIFNGLAWYQQKPGKSPKLLIYNAKTLHTGVPSRFSGSGSGSDYTLTISSLQPEDFATYFCQQYYDYPLTFGQGTKVEIK
notes: Humanized
Take B14: the dissociation constant (Kd) in test [4] came to 11 nM.

B15: Anti-PILRA antibody clone 13 (antibody, V domains shown)
VH: EVQLVQSGAEVKKPGASVKVSCKASGYTFTEYYMYWVRQAPGQGLELIGRIDPEDGGTDYIEKFKNRVTLTADTSTSTAYLELSSLRSEDTAVYYCATTIRGTVFAFWGQGTLVTVSS
VL: DIQMTQSPSSLSASVGDRVTITCRASEDIFNGLAWYQQKPGKSPKLLIYNAKTLHTGVPSRFSGSGSGSDYTLTISSLQPEDFATYFCQQYYDYPLTFGQGTKVEIK
notes: Humanized
With B15, in test [4], the Kd was 0.655 nM.

B16: Anti-PILRA antibody clone 27 (antibody, V domains shown)
VH: EVQLVQSGAEVKKPGASVKVSCKASGYTFTEYYMYWVRQAPGQGLELIGRIDPEDGGTDYVEKFKNRATLTADTSTSTAYLELSSLRSEDTAVYFCASTIRGTVFVYWGQGTLVTVSS
VL: DIQMTQSPSSLSASVGDRVTITCRPSEDIYNGLAWYQQKPGKAPKLLIYNANSLHTGVPSRFSGSGSGTDYTLTISSLQPEDFATYFCQQYYDYPLTFGQGTKVEIK
notes: Humanized
For B16, the Kd in test [4] worked out at 0.536 nM.

B17: Anti-PILRA antibody clone 30 (antibody, V domains shown)
VH: EVQLVQSGAEVKKPGASVKVSCKASGYTFTEYYMYWVRQAPGQGLELIGRIDPEDGGTDYVEKFKNRVTLTADTSTSTAYLELSSLRSEDTAVYYCASTIRGTVFVYWGQGTLVTVSS
VL: DIQMTQSPSSLSASVGDRVTITCRASEDIFNGLAWYQQKPGKSPKLLIYNAKTLHTGVPSRFSGSGSGTDYTLTISSLQPEDFATYYCQQYYDYPLTFGQGTKVEIK
notes: Humanized
Turning to B17, the dissociation constant Kd in test [4] came to 0.878 nM.

B18: Anti-PILRA antibody clone 34 (antibody, V domains shown)
VH: EVQLVQSGAEVKKPGASVKVSCKASGYTFTEYYMYWVRQAPGQGLELIGRIDPEDGGTDYVEKFKNRVTLTADTSTSTAYLELSSLRSEDTAVYYCASTIRGTVFVYWGQGTLVTVSS
VL: DIQMTQSPSSLSASVGDRVTITCRPSEDIYNGLAWYQQKPGKSPKLLIYNANSLHTGVPSRFSGSGSGTDYTLTISSLQPEDFATYFCQQYYDYPLTFGQGTKVEIK
notes: Humanized
Take B18: the Kd in test [4] was 1.8 nM.

B19: Anti-PILRA antibody clone 29 (antibody, V domains shown)
VH: EVQLVQSGAEVKKPGASVKVSCKASGYTFTEYYMYWVRQAPGQGLELIGRIDPEDGGTDYIEKFKNRSTLTADTSTSTAYLELSSLRSEDTAVYFCATTIRGTVFAFWGQGTLVTVSS
VL: DIQMTQSPSSLSASVGDRVTITCRASEDIFNGLAWYQQKPGKSPKLLIYNAKTLHTGVPSRFSGSGSGTDYTLTISSLQPEDFATYYCQQYYDYPLTFGQGTKVEIK
notes: Humanized
For the molecule B19, the equilibrium dissociation constant (Kd) in test [4] turned out to be 1.28 nM.

B20: Anti-PILRA antibody clone 20 (antibody, V domains shown)
VH: EVQLVQSGAEVKKPGASVKVSCKASGYTFTEYYMYWVRQAPGQGLELIGRIDPEDGGTDYIEKFKNRVTLTADTSTSTAYLELSSLRSEDTAVYYCATTIRGTVFAFWGQGTLVTVSS
VL: DIQMTQSPSSLSASVGDRVTITCRPSEDIYNGLAWYQQKPGKAPKLLIYNANSLHTGVPSRFSGSGSGTDYTLTISSLQPEDFATYYCQQYYDYPLTFGQGTKVEIK
notes: Humanized
B20: in test [4], the equilibrium dissociation constant (Kd) came out at 1.73 nM.
